Assays:
Assay in all cases: EMSA
SRSF1 wild type = SRSF1 wild type (human, UniProt Q07955 1-248)
SRSF1 P89S = SRSF1 P89S (human, UniProt Q07955 1-248, P89S)
SRSF1 E60D = SRSF1 E60D (human, UniProt Q07955 1-248, E60D)
Sequence of SRSF1 E60D (Q07955 whole entry E60D): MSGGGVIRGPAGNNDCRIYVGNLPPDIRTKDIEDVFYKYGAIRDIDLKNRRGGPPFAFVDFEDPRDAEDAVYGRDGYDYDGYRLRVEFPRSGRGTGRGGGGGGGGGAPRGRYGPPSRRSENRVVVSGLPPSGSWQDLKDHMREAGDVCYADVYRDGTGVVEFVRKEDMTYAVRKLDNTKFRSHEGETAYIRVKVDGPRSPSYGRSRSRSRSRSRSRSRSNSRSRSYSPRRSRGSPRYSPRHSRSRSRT

Sequence of SRSF1 wild type (Q07955 whole entry): as the sequence (Q07955 whole entry E60D) above, with D60E counted along it
Sequence of SRSF1 P89S (Q07955 whole entry P89S): as the sequence (Q07955 whole entry E60D) above, with D60E, P89S counted along it

B1: ssRNA (64mer) (ssRNA)
RNA: UUUCCCAGCACCAGAUUCAGCAUACGUUACCGAUCGUACGUUCGAUGCUGGCUACUGCUAGCUU
- binding result (SRSF1 wild type): binds
- binding result (SRSF1 P89S): no binding
- binding result (SRSF1 E60D): binds

— article PMC10865995
